Legend:
MBP-FUS-His6 S439E = MBP-FUS-His6 S439E (UniProt P35637 1-526, S439E); assay: EMSA; 5 mM MgCl2, 0.1 mg/ml yeast tRNA; 5 nM RNA, 0-10 uM protein; 20 mM NaPO4 pH 8, 150 mM NaCl, 5% glycerol, 1 mM DTT, 5 mM MgCl2, 0.5 mg/ml BSA, 0.1 mg/ml yeast tRNA, 1 U/ul RNase inhibitor, 20 min RT; 6% native PAGE in 0.5x TBE; conditions: protein: recombinant; tags: N-terminal MBP, C-terminal His6; hairpin with 3' single-stranded tail
MBP-FUS-His6 S439A = MBP-FUS-His6 S439A (UniProt P35637 1-526, S439A); assay: as above; conditions: protein: recombinant; tags: N-terminal MBP, C-terminal His6; hairpin with 3' single-stranded tail
MBP-FUS-His6 S439A, sequence (P35637 whole entry S439A): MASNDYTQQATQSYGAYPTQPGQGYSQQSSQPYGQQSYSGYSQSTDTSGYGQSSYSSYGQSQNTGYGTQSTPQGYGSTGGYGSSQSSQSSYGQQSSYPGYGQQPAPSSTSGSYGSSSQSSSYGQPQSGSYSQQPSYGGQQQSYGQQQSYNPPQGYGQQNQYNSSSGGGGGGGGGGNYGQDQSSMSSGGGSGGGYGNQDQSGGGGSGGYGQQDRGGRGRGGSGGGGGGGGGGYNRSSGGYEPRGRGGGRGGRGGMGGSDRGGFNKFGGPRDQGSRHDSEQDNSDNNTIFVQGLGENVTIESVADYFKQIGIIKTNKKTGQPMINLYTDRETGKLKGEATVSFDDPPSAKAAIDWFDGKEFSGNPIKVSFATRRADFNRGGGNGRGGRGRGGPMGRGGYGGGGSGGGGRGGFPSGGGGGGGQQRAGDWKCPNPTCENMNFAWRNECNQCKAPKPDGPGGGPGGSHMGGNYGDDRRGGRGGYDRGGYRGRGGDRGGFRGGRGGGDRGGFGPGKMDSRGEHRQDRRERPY

MBP-FUS-His6 S439E, sequence (P35637 whole entry S439E): as the sequence (P35637 whole entry S439A) above, with A439E counted along it

GGAUCUUUAACUACUCAAGAUACUGAACAUGACAUGGUA (structured_RNA) [SON pre-mRNA stem loop with downstream GGU motif]: no binding (MBP-FUS-His6 S439E); binds (MBP-FUS-His6 S439A).
